From patent publication US7582437 (JAPAN SCIENCE AND TECHNOLOGY AGENCY, dated 2009)
Numbering of substitutions follows the chain as printed. In names and notes the source's numbering stands.

B1: human TICAM-1 TIR (mutant made of almost only the TIR domain, amino acids 387 to 556 of human TICAM-1) (other)
chain: ESSSEQKFYNFVILHARADEHIALRVREKLEALGVPDGATFCEDFQVPGRGELSCLQDAIDHSAFIILLLTSNFDCRLSLHQVNQAMMSNLTRQGSPDCVIPFLPLESSPAQLSSDTASLLSGLVRLDEHSQIFARKVANTFKPHRLQARKAMWRKEQDTRALREQSQHL
notes: Expressed in HEK293 cells from pEFBOS; also called TIR of TICAM-1; pEFBOS-TICAM-1 (TIR)
B2: dominant-negative mutant P434H of human TICAM-1 TIR (other)
chain: B1 chain with P48H
notes: Expressed in HEK293 cells from pEFBOS with an initiator Met; also called TIR P434H

Columns and labels:
[1] = target: T1, human TLR3 (human, UniProt O15455 24-904); test: stated in the description with reference to the Examples (reporter gene assays)
T1 construct: whole, on cells; also called human Toll-like receptor 3

[2] = target: T1, human TLR3; test: stated in the description with reference to the Examples (dominant-negative effect in reporter gene assays)
Procedure: By using the gene transfecting cationic lipid "Lipfectamine 2000" reagent (made by Gibco), HEK293 cells in 24-well plates were transfected with (i) 0.1 µg of luciferase-linked NF-κB reporter gene (made by Stratagene) (c.f. FIG. 13(b)) or 0.1 µg of p125.luc reporter plasmid (c.f. FIG. 13(a)), (ii) TICAM-1 TIR (0.1 ng and 10 ng) or a plasmid (0, 0.2 µg, 0.6 µg), the plasmid encoding TICAM-1 TIR mutant TIR P434H of TICAM-1 TIR, and (iii) empty vector, TLR2 (0.1 µg), or TLR3 (0.6 µg).
A total amount (0.8 µg to 1.0 µg) of transfected DNA was adjusted by adding the empty vectors. Moreover, plasmid vector pCMVβ (made by Clontech; 5 ng) was used as an internal control.
Twenty four hours after the transfection, the cells were stimulated for 6 hours with 100 nM of MALP-2 (TLR2 stimulation) or 10 µg/ml of poly (I:C) (TLR3 stimulation), and then lyzed with the lysis buffer (made by Promega). Luciferase activity that indicate the interferon β activation or NF-κB activation caused by stimulation after the transfection in thus prepared lysates were measured according to the manufacturer's instructions. This experiment was repeated three times. Representing values thereof were considered as measurement values. Level of the interferon β activation is illustrated in FIG. 13(a), and level of the NF-κB activation is illustrated in FIG. 13(b).

| Binder | binding result [1] | binding result [2] |
| --- | --- | --- |
| B1 | binds | – |
| B2 | – | binds |
